Measured values as given in patent US20250032632A1 (published 2025).

What was measured:
[1] = target: T1, human cMET-Fc fusion protein (extracellular domain of human cMET fused to human Fc) (human, UniProt P08581 25-932); experiment: SPR, hMET-Fc
T1 construct: Mature cMET is cleaved into alpha and beta subunits; also called hMET-Fc; hMet-Fc

rat cMET-Fc = target: T2, rat cMET-Fc (rat, UniProt P97523 25-935); experiment: SPR, rMET-Fc
T2 construct: Construct named only as rMET-Fc; also called rMET-Fc; not shown: Fc part
T2 sequence (P97523 25-935 limits assumed): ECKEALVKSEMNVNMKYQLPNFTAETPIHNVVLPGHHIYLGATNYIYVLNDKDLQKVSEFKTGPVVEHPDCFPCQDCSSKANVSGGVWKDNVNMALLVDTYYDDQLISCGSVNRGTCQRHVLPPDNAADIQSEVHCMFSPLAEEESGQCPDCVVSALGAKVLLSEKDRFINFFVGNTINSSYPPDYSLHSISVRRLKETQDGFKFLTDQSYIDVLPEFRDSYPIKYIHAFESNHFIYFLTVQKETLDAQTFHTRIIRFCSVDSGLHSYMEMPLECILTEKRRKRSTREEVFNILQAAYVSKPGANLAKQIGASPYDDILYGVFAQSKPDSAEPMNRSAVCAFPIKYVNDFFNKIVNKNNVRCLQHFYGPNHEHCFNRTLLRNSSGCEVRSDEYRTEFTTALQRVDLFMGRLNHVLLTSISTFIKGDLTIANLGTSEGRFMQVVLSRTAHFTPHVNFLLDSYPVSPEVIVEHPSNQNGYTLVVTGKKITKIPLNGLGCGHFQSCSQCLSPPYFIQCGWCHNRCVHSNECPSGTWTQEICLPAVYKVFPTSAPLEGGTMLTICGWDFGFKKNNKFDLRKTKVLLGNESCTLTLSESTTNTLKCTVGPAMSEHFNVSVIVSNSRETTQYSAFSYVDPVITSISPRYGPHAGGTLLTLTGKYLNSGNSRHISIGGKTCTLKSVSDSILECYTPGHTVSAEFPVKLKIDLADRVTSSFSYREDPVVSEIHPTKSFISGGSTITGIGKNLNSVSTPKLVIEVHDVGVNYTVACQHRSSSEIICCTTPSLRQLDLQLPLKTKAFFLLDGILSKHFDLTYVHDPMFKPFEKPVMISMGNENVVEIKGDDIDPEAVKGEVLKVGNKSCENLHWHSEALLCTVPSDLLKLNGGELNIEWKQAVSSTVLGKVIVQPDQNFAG

rat cMET (ELISA antigen) = target: T3, rat cMET (ELISA antigen) (rat, UniProt P97523 25-935, limits assumed); experiment: ELISA on rat cMET, relative to parental P3D12
T3 construct: also called rMET
T3 sequence (P97523 25-935 limits assumed): as above

[2] = target: T4, human cMET (ELISA antigen) (human, UniProt P08581 25-932, limits assumed); experiment: ELISA on human cMET, relative to parental P3D12
T4 construct: also called hMET
T4 sequence (P08581 25-932 limits assumed): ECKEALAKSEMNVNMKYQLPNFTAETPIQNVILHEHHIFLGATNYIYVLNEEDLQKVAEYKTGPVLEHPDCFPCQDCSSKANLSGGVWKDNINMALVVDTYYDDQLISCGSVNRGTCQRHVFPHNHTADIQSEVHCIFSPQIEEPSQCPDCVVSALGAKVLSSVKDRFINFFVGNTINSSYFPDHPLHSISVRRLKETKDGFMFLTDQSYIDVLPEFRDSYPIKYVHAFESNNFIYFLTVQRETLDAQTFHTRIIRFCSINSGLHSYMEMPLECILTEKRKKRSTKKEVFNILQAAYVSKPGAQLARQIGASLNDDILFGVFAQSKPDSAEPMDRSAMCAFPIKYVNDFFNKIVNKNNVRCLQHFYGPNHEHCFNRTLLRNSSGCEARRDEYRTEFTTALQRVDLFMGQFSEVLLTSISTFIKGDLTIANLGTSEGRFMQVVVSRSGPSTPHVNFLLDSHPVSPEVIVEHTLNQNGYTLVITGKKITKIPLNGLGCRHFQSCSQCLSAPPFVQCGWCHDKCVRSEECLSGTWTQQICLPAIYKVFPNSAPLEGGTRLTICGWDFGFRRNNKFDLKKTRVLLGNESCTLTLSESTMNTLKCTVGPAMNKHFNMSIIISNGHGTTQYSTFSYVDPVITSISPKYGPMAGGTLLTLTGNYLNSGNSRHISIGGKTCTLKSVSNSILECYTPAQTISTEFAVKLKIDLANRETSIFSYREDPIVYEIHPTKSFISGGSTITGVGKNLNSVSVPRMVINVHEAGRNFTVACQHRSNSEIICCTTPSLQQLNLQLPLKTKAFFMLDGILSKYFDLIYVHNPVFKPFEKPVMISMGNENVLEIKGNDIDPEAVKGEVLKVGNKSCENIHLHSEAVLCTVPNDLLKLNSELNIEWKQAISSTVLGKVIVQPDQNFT

[3] = target: T5, mutant cMET (E168D) Fc recombinant fusion protein (human, UniProt P08581 25-932); experiment: binding ELISA, plate-coated E168D cMET-Fc, goat anti-human IgG (H+L)-HRP (FIG. 16)
T5 construct: also called E168D cMET; E168D cMET extracellular domain fused to human IgG1 Fc; not shown: Fc of human IgG1
T5 sequence (P08581 25-932 E168D): as the sequence (P08581 25-932 limits assumed) above, with E144D counted along it
Experimental: The E168D mutation is a somatic mutation found in small cell lung cancer (SCLC). The mutation is located in the Sema domain and leads to constitutive activation of the cMET receptor. Abundance of somatic mutations of cMET are very low. E168D occurs in 0.8% to 3% of SCLC patients. A binding ELISA was performed with human cMET or E168D cMET extracellular domains fused to human IgG1 Fc. cMET proteins were coated on a plate overnight and the samples titrated and detected with a goat anti-human IgG (H+L)-HRP. EC₅₀s were determined using sigmoidal dose response fit.

[4] = target: T6, Recombinant Human c-Met-10X His (human, UniProt P08581 25-932); experiment: cMET binding ELISA, plate-bound human cMET (FIGS. 24A, 24B)
T6 construct: In-house reagent (Lot #140924TA); not shown: 10X His tag
T6 sequence (P08581 25-932 limits assumed): as the sequence (P08581 25-932 limits assumed) above
Experimental: The antibody drug conjugates were tested at increasing concentrations (x-axis, concentration of antibody-drug conjugate (μg/ml)) for their ability to bind plate-bound human cMET. Relative binding strength is indicated by luminescence (y-axis).
PMID: 5257969. The payload of chemical formula II was site-specifically conjugated to each of the mutated cysteine residues using Maleimide chemistry. The quality and extent of conjugation was assessed by a determination of total recovery, aggregate content, monomer content and drug-antibody ratio (DAR).

T1 sequence (P08581 25-932): as the sequence (P08581 25-932 limits assumed) above

B1: hD12 (humanized anti-cMET antibody of IgG2 isotype, VH-cdr SEQ ID NO: 108 + VL-fra SEQ ID NO: 47) (antibody)
heavy: QVQLVQSGAEVKKPGASVKVSCKASGYTFTSYWMHWVKQAPGQGLDWIGYIKPSTDNTEYNQKFKDKATLTADKSTSTAYMELSSLRSEDTAVYYCARSYGNYPLMDYWGQGTTVTVSSASTKGPSVFPLAPCSRSTSESTAALGCLVKDYFPEPVTVSWNSGALTSGVHTFPAVLQSSGLYSLSSVVTVPSSNFGTQTYTCNVDHKPSNTKVDKTVERKCCVECPPCPAPPVAGPSVFLFPPKPKDTLMISRTPEVTCVVVDVSHEDPEVQFNWYVDGVEVHNAKTKPREEQFNSTFRVVSVLTVVHQDWLNGKEYKCKVSNKGLPAPIEKTISKTKGQPREPQVYTLPPSREEMTKNQVSLTCLVKGFYPSDIAVEWESNGQPENNYKTTPPMLDSDGSFFLYSKLTVDKSRWQQGNVFSCSVMHEALHNHYTQKSLSLSPGK
light: QIVLTQSPAILSLSPGERATLSCSASSSVTSNYLYWYQQKPGSSPKLLIYSTSNLASGVPARFSGSGSGTSYTLTISSLEAEDAASYFCHQWSSYPPTFGSGTKLEIKRTVAAPSVFIFPPSDEQLKSGTASVVCLLNNFYPREAKVQWKVDNALQSGNSQESVTEQDSKDSTYSLSSTLTLSKADYEKHKVYACEVTHQGLSSPVTKSFNRGEC
notes: also called G2ckf
Kd [1]: 0.3 nM | Kd (rat cMET-Fc): 7 nM | ELISA rMET vs parental (rat cMET (ELISA antigen)): 0.9 fold vs parental | ELISA hMET vs parental [2]: 0.7 fold vs parental | binding result [3]: binds

B2: hD12-T289C-II (hD12 T289C variant site-specifically conjugated to the payload of chemical formula II) (antibody, human IgG2, kappa)
heavy: QVQLVQSGAEVKKPGASVKVSCKASGYTFTSYWMHWVKQAPGQGLDWIGYIKPSTDNTEYNQKFKDKATLTADKSTSTAYMELSSLRSEDTAVYYCARSYGNYPLMDYWGQGTTVTVSSASTKGPSVFPLAPCSRSTSESTAALGCLVKDYFPEPVTVSWNSGALTSGVHTFPAVLQSSGLYSLSSVVTVPSSNFGTQTYTCNVDHKPSNTKVDKTVERKCCVECPPCPAPPVAGPSVFLFPPKPKDTLMISRTPEVTCVVVDVSHEDPEVQFNWYVDGVEVHNAKCKPREEQFNSTFRVVSVLTVVHQDWLNGKEYKCKVSNKGLPAPIEKTISKTKGQPREPQVYTLPPSREEMTKNQVSLTCLVKGFYPSDIAVEWESNGQPENNYKTTPPMLDSDGSFFLYSKLTVDKSRWQQGNVFSCSVMHEALHNHYTQKSLSLSPGK
light: QIVLTQSPAILSLSPGERATLSCSASSSVTSNYLYWYQQKPGSSPKLLIYSTSNLASGVPARFSGSGSGTSYTLTISSLEAEDAASYFCHQWSSYPPTFGSGTKLEIKRTVAAPSVFIFPPSDEQLKSGTASVVCLLNNFYPREAKVQWKVDNALQSGNSQESVTEQDSKDSTYSLSSTLTLSKADYEKHKVYACEVTHQGLSSPVTKSFNRGEC
modifications: payload of chemical formula II on Cys 289 (EU numbering), maleimide chemistry
notes: Antibody-drug conjugate, IgG2
binding result [4]: binds
